The target in the test is Cx43 EL1 peptide extracellular loop 1 (EL1) (Mus musculus, UniProt P23242). Nature of the test: SPR. A general note: SPR reads the build-up and loss of mass on a sensor chip optically.

Consider one molecule from publication PMC5760527 (2018).

Sequence of Cx43 EL1 peptide extracellular loop 1 (EL1) (P23242 45-76): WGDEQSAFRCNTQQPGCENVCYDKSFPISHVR

With QPGCEN [P4 peptide (Cx43 mimetic)], the affinity, expressed as Kd, was 20 µM.

By Kd is commonly meant the free concentration of one partner at which half of the binding sites on the other are occupied at equilibrium, for simple one-to-one binding. Low readings indicate higher affinity, high ones lower affinity.
